# The supplement of paper PMC7877785
# ± gives the uncertainty stated by the source.
# Assay: self-splicing fitness, log relative to wild type (ln ratio); higher = more splicing; Tetrahymena group I intron in knt gene, E. coli kanamycin selection, DiMSum; sequences stand for … in CUCUCU…GGAGGGAAAAGUUAUCAGGCAUGCACCUGGUAGCUAGUCUUUAAACCAAUAGAUUGCAUCGGUUUAAAAGGCAAGACCGUCAAAUUGCGGGAAAGGGGUCAACAGCCGUUCAGUACCAAGUCUCAGGGGAAACUUUGAGAUGGCCUUGCAAAGGGUAUGGUAAUAAGCUGACGGACAUGGUCCUAACCACGCAGCCAAGUCCUAAGUCAACAGAUCUUCUGUUGAUAUGGAUGCAGUUCACAGACUAAAUGUCGGUCGGGGAAGAUGUAUUCUUCUCAUAAGAUAUAGUCGGACCUCUCCUUAAUGGGAGCUAGCGGAUGAAGUGAUGCAACACUGGAGCCGCUGGGAACUAAUUUGUAUGCGAAAGUAUAUUGAUUAGUUUUGGAGUACUCGUGGUCG
# In short: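 A randomised library covering all eight P1ex-region intron nucleotides was built with the intron in the knt kanamycin-resistance gene on pET-22b(+) and held in E. coli BL21(DE3). Cells were grown overnight at 37°C or 30°C on LB agar, with or without 25 μg/mL kanamycin, plus 100 μg/mL carbenicillin, 50 μM IPTG and 0.2% rhamnose, and pooled colonies were amplicon-sequenced on an Illumina HiSeq 2500. DiMSum fitness is the error-weighted combination of wild-type-normalised replicate fold changes, kanamycin versus none.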
Sequence,self-splicing fitness (ln) (30 °C),self-splicing fitness (ln) (37 °C)
AAAUAGCAAUAUUACGCCCC,-1.71 ± 0.32,0.0438 ± 0.38
AAAUAGCAAUAUUACGCGGC,–,-2.2 ± 0.42
AAAUAGCAAUAUUACGCUCG,-0.663 ± 0.12,-0.925 ± 0.15
AAAUAGCAAUAUUACGCUUC,-3.19 ± 0.3,-2.99 ± 0.3
AAAUAGCAAUAUUACGGAAG,-3.63 ± 0.25,-2.15 ± 0.18
AAAUAGCAAUAUUACGGAGU,-3.7 ± 0.2,-2.61 ± 0.15
AAAUAGCAAUAUUACGGCCC,-0.752 ± 0.16,-0.254 ± 0.22
AAAUAGCAAUAUUACGGCCU,-0.218 ± 0.095,0.661 ± 0.17
AAAUAGCAAUAUUACGGCGC,-1.11 ± 0.15,-0.73 ± 0.15
AAAUAGCAAUAUUACGGCUC,-0.691 ± 0.14,0.393 ± 0.18
AAAUAGCAAUAUUACGGGCU,-2.04 ± 0.15,-0.367 ± 0.13
AAAUAGCAAUAUUACGGUUG,-1.88 ± 0.094,-1.33 ± 0.12
AAAUAGCAAUAUUACGUCCC,-0.4 ± 0.21,-1.33 ± 0.28
AAAUAGCAAUAUUACGUGCA,-1.23 ± 0.063,-0.426 ± 0.095
AAAUAGCAAUAUUACGUGCC,-1.46 ± 0.084,-0.919 ± 0.09
AAAUAGCAAUAUUACGUUCG,-1.17 ± 0.088,-0.371 ± 0.13
AAAUAGCAAUAUUACGUUUC,-3.46 ± 0.39,–
AACAAGCAAUAUUACGAAAA,-1.7 ± 0.15,-2.39 ± 0.19
AACAAGCAAUAUUACGACAA,-1.28 ± 0.12,-1.18 ± 0.098
AACAAGCAAUAUUACGACGA,-1.15 ± 0.07,-0.468 ± 0.074
AACAAGCAAUAUUACGACGC,-0.761 ± 0.066,-0.386 ± 0.076
AACAAGCAAUAUUACGACUA,-0.0433 ± 0.095,0.555 ± 0.1
AACAAGCAAUAUUACGAUAG,-3.24 ± 0.17,-2.24 ± 0.18
AACAAGCAAUAUUACGCAUG,-1.7 ± 0.082,-0.726 ± 0.1
AACAAGCAAUAUUACGCGCU,-0.49 ± 0.07,-0.454 ± 0.078

Sequence,self-splicing fitness (ln) (30 °C),self-splicing fitness (ln) (37 °C)
AACAAGCAAUAUUACGCUAG,-3.74 ± 0.19,-1.98 ± 0.15
AACAAGCAAUAUUACGCUGG,-2.25 ± 0.081,-1.04 ± 0.1
AACAAGCAAUAUUACGCUUU,-3.18 ± 0.15,-2.77 ± 0.18
AACAAGCAAUAUUACGGAAA,-3.08 ± 0.15,-1.34 ± 0.11
AACAAGCAAUAUUACGGCUC,-0.27 ± 0.071,0.236 ± 0.1
AACAAGCAAUAUUACGGGGG,-2.94 ± 0.17,-1.86 ± 0.17
AACAAGCAAUAUUACGGUAC,-3.04 ± 0.16,-1.99 ± 0.18
AACAAGCAAUAUUACGGUUA,-0.694 ± 0.058,-0.134 ± 0.064
AACAAGCAAUAUUACGUAGA,-2.88 ± 0.089,-0.993 ± 0.077
AACAAGCAAUAUUACGUAGU,-2.37 ± 0.11,-1.47 ± 0.12
AACAAGCAAUAUUACGUCCU,0.214 ± 0.064,0.0455 ± 0.074
AACAAGCAAUAUUACGUGAA,-2.08 ± 0.082,-0.353 ± 0.081
AACAAGCAAUAUUACGUGGG,-2.93 ± 0.12,-2.95 ± 0.13
AACAAGCAAUAUUACGUGUU,-4.01 ± 0.19,-2.05 ± 0.12
AACAAGCAAUAUUACGUUAU,-3.49 ± 0.16,-2.13 ± 0.12
AACAAGCAAUAUUACGUUCU,-2.01 ± 0.064,-1.16 ± 0.094
AACCAGCAAUAUUACGAAAA,-1.54 ± 0.099,-1.3 ± 0.1
AACCAGCAAUAUUACGAAAC,-2.26 ± 0.14,-0.477 ± 0.16
AACCAGCAAUAUUACGAAGU,-2.26 ± 0.066,-0.559 ± 0.069
AACCAGCAAUAUUACGAGCU,-2.52 ± 0.087,-1.82 ± 0.1
AACCAGCAAUAUUACGAUUA,-0.368 ± 0.056,-0.164 ± 0.067
AACCAGCAAUAUUACGAUUC,-1.63 ± 0.071,-0.153 ± 0.084
AACCAGCAAUAUUACGCAUA,-0.88 ± 0.078,0.309 ± 0.089
AACCAGCAAUAUUACGCAUG,-1.7 ± 0.082,-0.971 ± 0.083
AACCAGCAAUAUUACGCCCA,-0.618 ± 0.22,-0.865 ± 0.18

Sequence,self-splicing fitness (ln) (30 °C),self-splicing fitness (ln) (37 °C)
AACCAGCAAUAUUACGCCGA,-0.252 ± 0.11,-0.169 ± 0.11
AACCAGCAAUAUUACGCCUU,-0.506 ± 0.053,0.096 ± 0.07
AACCAGCAAUAUUACGCGAG,-1.21 ± 0.063,-0.492 ± 0.072
AACCAGCAAUAUUACGCGUG,-1.09 ± 0.057,-0.149 ± 0.063
AACCAGCAAUAUUACGCUUU,-1.42 ± 0.084,-1.05 ± 0.09
AACCAGCAAUAUUACGGCAG,-1.02 ± 0.058,-0.17 ± 0.08
AACCAGCAAUAUUACGGCUC,-1.34 ± 0.1,-0.82 ± 0.11
AACCAGCAAUAUUACGGUAA,-0.741 ± 0.051,-0.682 ± 0.058
AACCAGCAAUAUUACGGUGA,-1.19 ± 0.065,-0.538 ± 0.078
AACCAGCAAUAUUACGUAAC,-2.5 ± 0.094,-1.15 ± 0.11
AACCAGCAAUAUUACGUAGC,-2.7 ± 0.089,-2.17 ± 0.11
AACCAGCAAUAUUACGUCGU,-1.26 ± 0.046,-0.25 ± 0.058
AACCAGCAAUAUUACGUCUC,-1.23 ± 0.056,-0.774 ± 0.076
AACCAGCAAUAUUACGUGAG,-0.744 ± 0.04,-0.39 ± 0.067
AACCAGCAAUAUUACGUGUU,-3.59 ± 0.11,-2.47 ± 0.12
AACGAGCAAUAUUACGAACU,-1.11 ± 0.13,-1.42 ± 0.16
AACGAGCAAUAUUACGAGUU,-3.48 ± 0.32,-2.1 ± 0.22
AACGAGCAAUAUUACGAUGG,-3.27 ± 0.16,-3 ± 0.26
AACGAGCAAUAUUACGCAGA,-4.04 ± 0.3,-2.18 ± 0.23
AACGAGCAAUAUUACGCCAA,-2.5 ± 0.19,-3.1 ± 0.22
AACGAGCAAUAUUACGCCCG,-1.98 ± 0.32,-0.148 ± 0.33
AACGAGCAAUAUUACGCCCU,-1.66 ± 0.12,-0.745 ± 0.17
AACGAGCAAUAUUACGCCGG,-2.42 ± 0.4,-0.855 ± 0.34
AACGAGCAAUAUUACGCCUA,-3.36 ± 0.41,-1.08 ± 0.3
AACGAGCAAUAUUACGGAUU,-2.3 ± 0.14,-1.4 ± 0.19
